Test results reported in PMC10130975.

Target: human glycerol kinase (His-GK) (human) (UniProt P32189)
Assay: native gel or EMSA; native-PAGE without the denaturants of SDS-PAGE; purified His-GK ran at ~100 kDa, against ~55 kDa by 10% SDS-PAGE

Substance: human glycerol kinase (His-GK) (from UniProt P32189 1-559) (enzyme)
- stoichiometry N: 2
